The text below walks through data of patent US20240254238A1 (OXFORD BIOTHERAPEUTICS, published 2024).

In this assay the target is human CD205 (human, UniProt O60449 28-1722). As to the kind of experiment: cell-based or functional assay.
Chain of human CD205 (O60449 28-1722 limits assumed): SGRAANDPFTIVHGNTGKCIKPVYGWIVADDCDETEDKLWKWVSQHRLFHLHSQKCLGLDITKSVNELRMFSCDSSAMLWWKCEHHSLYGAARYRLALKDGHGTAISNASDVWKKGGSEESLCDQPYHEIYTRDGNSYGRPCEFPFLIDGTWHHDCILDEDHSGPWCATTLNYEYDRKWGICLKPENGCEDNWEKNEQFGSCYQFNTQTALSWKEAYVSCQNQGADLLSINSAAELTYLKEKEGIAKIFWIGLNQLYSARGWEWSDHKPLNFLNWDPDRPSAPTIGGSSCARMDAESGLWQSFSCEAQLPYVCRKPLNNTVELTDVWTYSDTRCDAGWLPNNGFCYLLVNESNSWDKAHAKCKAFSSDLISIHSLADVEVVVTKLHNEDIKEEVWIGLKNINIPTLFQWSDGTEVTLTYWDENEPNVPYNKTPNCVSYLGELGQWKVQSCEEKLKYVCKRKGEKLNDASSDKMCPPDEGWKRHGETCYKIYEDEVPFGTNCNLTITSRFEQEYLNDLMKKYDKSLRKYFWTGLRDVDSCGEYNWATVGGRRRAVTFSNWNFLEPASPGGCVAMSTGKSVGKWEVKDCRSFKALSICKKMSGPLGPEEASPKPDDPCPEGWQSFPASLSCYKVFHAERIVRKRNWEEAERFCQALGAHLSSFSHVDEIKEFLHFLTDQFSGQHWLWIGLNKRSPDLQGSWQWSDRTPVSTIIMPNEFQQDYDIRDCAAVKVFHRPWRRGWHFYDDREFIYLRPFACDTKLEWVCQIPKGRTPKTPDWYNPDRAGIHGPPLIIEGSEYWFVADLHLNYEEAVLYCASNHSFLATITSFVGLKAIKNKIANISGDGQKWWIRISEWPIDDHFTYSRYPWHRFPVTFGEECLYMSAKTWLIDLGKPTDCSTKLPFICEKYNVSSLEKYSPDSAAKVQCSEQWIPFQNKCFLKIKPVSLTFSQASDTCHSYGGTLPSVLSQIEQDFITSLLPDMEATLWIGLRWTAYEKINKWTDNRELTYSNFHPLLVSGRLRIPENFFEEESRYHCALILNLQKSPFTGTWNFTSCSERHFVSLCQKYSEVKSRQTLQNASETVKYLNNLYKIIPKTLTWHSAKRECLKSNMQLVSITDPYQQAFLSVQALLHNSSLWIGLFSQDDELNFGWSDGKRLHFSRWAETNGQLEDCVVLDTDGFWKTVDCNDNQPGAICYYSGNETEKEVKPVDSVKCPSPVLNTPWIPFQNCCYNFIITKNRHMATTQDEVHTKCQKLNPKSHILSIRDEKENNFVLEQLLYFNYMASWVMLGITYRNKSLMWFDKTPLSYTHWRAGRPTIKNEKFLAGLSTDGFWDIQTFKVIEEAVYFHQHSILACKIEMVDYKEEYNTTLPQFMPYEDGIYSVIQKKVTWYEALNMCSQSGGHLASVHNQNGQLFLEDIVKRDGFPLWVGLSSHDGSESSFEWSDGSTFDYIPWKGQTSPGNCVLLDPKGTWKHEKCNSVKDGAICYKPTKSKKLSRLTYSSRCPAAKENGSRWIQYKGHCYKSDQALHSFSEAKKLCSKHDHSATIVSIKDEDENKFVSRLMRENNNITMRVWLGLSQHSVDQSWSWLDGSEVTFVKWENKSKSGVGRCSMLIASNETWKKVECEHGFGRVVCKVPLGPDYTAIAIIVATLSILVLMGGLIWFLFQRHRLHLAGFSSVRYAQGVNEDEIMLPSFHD

B1: DM4-conjugated anti-LY75 monoclonal antibody 8A3 (antibody, V domains shown)
VH: EVQLVESGGGLIQPGGSLRLSCAASGFTVSSNYMSWVRQAPGKGLEWVSVIYSGGSTYYTDSVKGRFTISRDNSKNTLYLQMNSLRAEDTAVYYCARDKSGWNGFDYWGQGTLVTVSS
VL: DVQMTQSPSSLSASVGDRVTITCRASQSVSTYLHWYQQKPGKAPKLLIYAASSLQGGLPSRFSGSGSGTDFTLTISSLQPEDFATYYCQQSSSTPLTFGGGTKVEITR
modifications: antibody conjugated to the maytansinoid DM4; attachment residues not stated
On to B1, for which the “EC50 (pM) of % Specific Death, Cell-Titer Glo, Raji cells, 96 hours” value was 1010 pM and the “EC50 (pM) of % Specific Death, Cell-Titer Glo, THP1 cells, 96 hours” value turned out to be 98.8 pM.

B2: DM4-conjugated anti-LY75 monoclonal antibody 16A5 (CD205_A1) (antibody, V domains shown)
VH: EVQLVESGGGLVKPGGSLRLSCAASGFTYSNAWMSWVRQAPGKGLEWVGRIKSKTDGGTTDYAAPVQGRFTISRDDSKNTLYLQMNSLKTEDTAVYYCTIFGVVSFDYWGQGTLVTVSS
VL: DVQMTQSPSSLSASVGDRVTITCRASQSISDYLSWYQQRPGKAPNLLIYAASNLKTGVPSRFSGSGSGTDFTLTISTLQPEDFATYYCQQSYRSPWTFGQGTKVEIKR
modifications: antibody conjugated to the maytansinoid DM4; attachment residues not stated
For B2, the “EC50 (pM) of % Specific Death, Cell-Titer Glo, Raji cells, 96 hours” value was 728 pM and the “EC50 (pM) of % Specific Death, Cell-Titer Glo, THP1 cells, 96 hours” value is 37.5 pM.
